Measured values as given in PMC10979024 (Nature Communications, 2024).

Experiments:
DvCODH = biological target: T1, DvCODH (Nitratidesulfovibrio vulgaris, UniProt Q72A99); type: biochemical; conditions: CO-saturated 50 mM HEPES/NaOH pH 8, 2 mM DTE, 20 mM viologen, 30 °C
T1 construct: gene cooS

[1] = biological target: the molecule itself; experiment: SEC; size exclusion chromatography of the purified enzyme; measured molecular mass compared with the theoretical mass of the dimer

T1 sequence (Q72A99 1-629): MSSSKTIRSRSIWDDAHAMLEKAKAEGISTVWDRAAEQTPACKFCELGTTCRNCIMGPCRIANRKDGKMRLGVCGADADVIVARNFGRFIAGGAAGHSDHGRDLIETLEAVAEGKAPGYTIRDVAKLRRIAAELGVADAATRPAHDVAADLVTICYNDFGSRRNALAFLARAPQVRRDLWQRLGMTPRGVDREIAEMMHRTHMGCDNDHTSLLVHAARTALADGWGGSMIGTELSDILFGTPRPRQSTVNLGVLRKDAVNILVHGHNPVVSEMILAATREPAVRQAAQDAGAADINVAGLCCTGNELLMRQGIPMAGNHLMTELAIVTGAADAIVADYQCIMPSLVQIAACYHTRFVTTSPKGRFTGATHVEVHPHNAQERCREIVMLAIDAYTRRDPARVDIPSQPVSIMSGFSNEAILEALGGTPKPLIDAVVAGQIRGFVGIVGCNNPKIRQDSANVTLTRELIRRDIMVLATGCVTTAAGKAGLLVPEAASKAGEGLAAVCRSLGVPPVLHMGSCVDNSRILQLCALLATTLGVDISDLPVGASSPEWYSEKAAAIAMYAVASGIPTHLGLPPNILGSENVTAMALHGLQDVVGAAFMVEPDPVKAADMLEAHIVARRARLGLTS

## C[n+]1ccc(-c2cc[n+](C)cc2)cc1 [MV, methyl viologen]
DvCODH
  CO-dependent viologen reduction, relative activity: essential for viologen reduction using the four mediators MV, EV, BV, and diquat (DQ)

B1: ChCODH2 F41A (enzyme, Carboxydothermus hydrogenoformans)
chain: MAKQNLKSTDRAVQQMLDKAKREGIQTVWDRYEAMKPQCGAGETGLCCRHCLQGPCRINPFGDEPKVGICGATAEVIVARGLDRSIAAGAAGHSGHAKHLAHTLKKAVQGKAASYMIKDRTKLHSIAKRLGIPTEGQKDEDIALEVAKAALADFHEKDTPVLWVTTVLPPSRVKVLSAHGLIPAGIDHEIAEIMHRTSMGCDADAQNLLLGGLRCSLADLAGCYMGTDLADILFGTPAPVVTESNLGVLKADAVNVAVHGHNPVLSDIIVSVSKEMENEARAAGATGINVVGICCTGNEVLMRHGIPACTHSVSQEMAMITGALDAMILDYQCIQPSVATIAECTGTTVITTMEMSKITGATHVNFAEEAAVENAKQILRLAIDTFKRRKGKPVEIPNIKTKVVAGFSTEAIINALSKLNANDPLKPLIDNVVNGNIRGVCLFAGCNNVKVPQDQNFTTIARKLLKQNVLVVATGCGAGALMRHGFMDPANVDELCGDGLKAVLTAIGEANGLGGPLPPVLHMGSCVDNSRAVALVAALANRLGVDLDRLPVVASAAEAMHEKAVAIGTWAVTIGLPTHIGVLPPITGSLPVTQILTSSVKDITGGYFIVELDPETAADKLLAAINERRAGLGLPW
notes: Ni-Fe carbon monoxide dehydrogenase 2 (ChCODH2), Carboxydothermus hydrogenoformans, locus Chy_0085; site-directed variant in pET28a; source: E. coli BL21(DE3) with pRKISC, purified (Ni-NTA; size-exclusion chromatography)
[1]
  stoichiometry N: 2

B2: ChCODH2 wild type (carbon monoxide dehydrogenase 2 of Carboxydothermus hydrogenoformans) (enzyme)
chain: MAKQNLKSTDRAVQQMLDKAKREGIQTVWDRYEAMKPQCGFGETGLCCRHCLQGPCRINPFGDEPKVGICGATAEVIVARGLDRSIAAGAAGHSGHAKHLAHTLKKAVQGKAASYMIKDRTKLHSIAKRLGIPTEGQKDEDIALEVAKAALADFHEKDTPVLWVTTVLPPSRVKVLSAHGLIPAGIDHEIAEIMHRTSMGCDADAQNLLLGGLRCSLADLAGCYMGTDLADILFGTPAPVVTESNLGVLKADAVNVAVHGHNPVLSDIIVSVSKEMENEARAAGATGINVVGICCTGNEVLMRHGIPACTHSVSQEMAMITGALDAMILDYQCIQPSVATIAECTGTTVITTMEMSKITGATHVNFAEEAAVENAKQILRLAIDTFKRRKGKPVEIPNIKTKVVAGFSTEAIINALSKLNANDPLKPLIDNVVNGNIRGVCLFAGCNNVKVPQDQNFTTIARKLLKQNVLVVATGCGAGALMRHGFMDPANVDELCGDGLKAVLTAIGEANGLGGPLPPVLHMGSCVDNSRAVALVAALANRLGVDLDRLPVVASAAEAMHEKAVAIGTWAVTIGLPTHIGVLPPITGSLPVTQILTSSVKDITGGYFIVELDPETAADKLLAAINERRAGLGLPW
notes: Ni-Fe carbon monoxide dehydrogenase 2 (ChCODH2), Carboxydothermus hydrogenoformans, locus Chy_0085; synthesized DNA in pET28a; Carries Fe-S and Ni-Fe clusters (B, C, D); also called ChCODH2 WT; WT; source: E. coli BL21(DE3) with pRKISC, purified (Ni-NTA; size-exclusion chromatography)
[1]
  binding result: binds
